Measurements reported in article PMC10853802, “ESRP1 controls biogenesis and function of a large abundant multiexon circRNA”.
Substitutions are numbered along the chain they refer to.

T1: ESRP1 qRRM2 WT (human, UniProt Q6NXG1 312-430)
T1 sequence: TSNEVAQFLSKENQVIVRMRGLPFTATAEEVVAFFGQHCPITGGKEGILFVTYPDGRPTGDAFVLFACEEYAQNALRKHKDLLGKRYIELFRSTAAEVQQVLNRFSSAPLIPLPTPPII

T2: ESRP1 qRRM2 Y398A (human, UniProt Q6NXG1 312-430, Y398A)
T2 sequence: T1 sequence with Y87A

T3: ESRP1 qRRM2 F335A (human, UniProt Q6NXG1 312-430, F335A)
T3 sequence: T1 sequence with F24A

T4: ESRP1 qRRM2 R397A (human, UniProt Q6NXG1 312-430, R397A)
T4 sequence: T1 sequence with R86A

B1: 12-mer RNA (ssRNA)
RNA: UGGUGGUGGUGG
B2: 6-mer RNA (ssRNA)
RNA: UGGUGG

What was measured:
Conditions in all cases: protein: recombinant; tags: His-SUMO removed by Ulp1
ESRP1 qRRM2 WT = molecular target: T1, ESRP1 qRRM2 WT; experiment: X-ray crystallography (1.65 A); ITC: 100 mM NaCl, 10 mM Tris-HCl pH 8.0, 25 C; 300 uM protein injected into 20 uM RNA
ESRP1 qRRM2 Y398A = molecular target: T2, ESRP1 qRRM2 Y398A; experiment: ITC; ITC: 100 mM NaCl, 10 mM Tris-HCl pH 8.0, 25 C; 300 uM protein injected into 20 uM RNA
ESRP1 qRRM2 F335A = molecular target: T3, ESRP1 qRRM2 F335A; experiment: as above
ESRP1 qRRM2 R397A = molecular target: T4, ESRP1 qRRM2 R397A; experiment: as above

| Binder | binding result (ESRP1 qRRM2 WT) | binding result (ESRP1 qRRM2 Y398A) | binding result (ESRP1 qRRM2 F335A) | binding result (ESRP1 qRRM2 R397A) |
| --- | --- | --- | --- | --- |
| B1 | binds | – | – | – |
| B2 | – | no binding | no binding | no binding |
